According to article doi:10.1101/2022.09.29.510132 (bioRxiv, 2022):
One block for each binder: values may come before it.

Experiments:
[1] = biological target: T1, E6AP AZUL (UniProt Q05086 24-87); test: NMR titration; unlabeled UBQLN1 constructs added to 0.05 mM 15N-E6AP AZUL; 1H-15N HSQC; Buffer E (10 mM MOPS pH 6.5, 50 mM NaCl, 5 mM DTT, 10 μM zinc sulfate), 25 °C; settings: both partners purified
T1 construct: AZUL domain of E6AP/UBE3A; Used unlabeled or 15N-labeled; source: expressed and purified as described previously (Buel et al., 2020)
T1 sequence: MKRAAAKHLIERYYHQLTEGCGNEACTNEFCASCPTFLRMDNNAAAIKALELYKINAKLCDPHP

[2] = biological target: T2, UBQLN2 (UniProt Q9UHD9 1-624); test: recruitment to phase-separated droplets (confocal fluorescence microscopy, in vitro); 50 µM UBQLN2 construct with 25 µM AZUL-mEGFP or EGFP in 20 mM NaPO4, 200 mM NaCl, 2.5 µM ZnSO4 (pH 6.8) at 37 °C; settings: both partners purified
T2 construct: UBQLN2 full-length construct; Phase separates into droplets at 37 °C with 200 mM NaCl; also called UBQLN2 full-length; source: E. coli BL21 (DE3), purified (glutathione sepharose, PreScission cleavage, SEC); not shown: GST, N-terminal, cleaved

binding result [1]: binds
B1: UBQLN1 UBA (541-589) (domain or fragment, UniProt Q9UMX0 541-589, looked up)
chain: QNPEVRFQQQLEQLSAMGFLNREANLQALIATGGDINAAIERLLGSQPS
notes: The construct contains a tyrosine residue in the tag to enable quantitation at A280; source: E. coli BL21 (DE3), purified (glutathione sepharose, PreScission cleavage, SEC); not shown: GST, N-terminal, cleaved

binding result [2]: binds
B2: AZUL-mEGFP (domain or fragment, UniProt Q05086 24-87, looked up)
chain: T1 sequence
notes: E6AP isoform II residues 24-87 (AZUL); AZUL and mEGFP are separated by a TEV protease cut site; A206K is numbered relative to avGFP (A207K relative to EGFP); also called E6AP isoform II 24-87 with a C-terminal mEGFP; source: E. coli BL21 (DE3), purified (glutathione sepharose, PreScission cleavage, SEC); not shown: GST, N-terminal, cleaved; mEGFP (EGFP with A206K), C-terminal, kept
